Source: IntAct's records for PubMed 16282588

Legend:
tdg_human TDG [1] = molecular target: tdg_human TDG (UniProt Q13569)
tdg_human TDG [2] = molecular target: tdg_human TDG (UniProt Q13569); remark: listed apart in the source
tdg_mouse Tdg = tdg_mouse Tdg (UniProt P56581)
Sequence of tdg_mouse Tdg (P56581 whole entry): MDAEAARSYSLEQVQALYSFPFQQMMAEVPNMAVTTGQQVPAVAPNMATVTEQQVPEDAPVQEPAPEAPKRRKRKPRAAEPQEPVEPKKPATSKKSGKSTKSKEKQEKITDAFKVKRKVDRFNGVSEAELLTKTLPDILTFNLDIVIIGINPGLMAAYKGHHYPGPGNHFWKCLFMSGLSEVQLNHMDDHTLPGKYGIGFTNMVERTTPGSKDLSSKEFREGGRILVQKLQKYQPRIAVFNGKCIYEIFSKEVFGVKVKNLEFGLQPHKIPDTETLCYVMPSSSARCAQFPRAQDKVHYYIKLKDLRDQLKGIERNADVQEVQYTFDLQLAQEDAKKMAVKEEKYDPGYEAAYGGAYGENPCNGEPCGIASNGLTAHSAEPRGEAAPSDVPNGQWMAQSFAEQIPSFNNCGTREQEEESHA

Sequence of tdg_human TDG (Q13569 whole entry): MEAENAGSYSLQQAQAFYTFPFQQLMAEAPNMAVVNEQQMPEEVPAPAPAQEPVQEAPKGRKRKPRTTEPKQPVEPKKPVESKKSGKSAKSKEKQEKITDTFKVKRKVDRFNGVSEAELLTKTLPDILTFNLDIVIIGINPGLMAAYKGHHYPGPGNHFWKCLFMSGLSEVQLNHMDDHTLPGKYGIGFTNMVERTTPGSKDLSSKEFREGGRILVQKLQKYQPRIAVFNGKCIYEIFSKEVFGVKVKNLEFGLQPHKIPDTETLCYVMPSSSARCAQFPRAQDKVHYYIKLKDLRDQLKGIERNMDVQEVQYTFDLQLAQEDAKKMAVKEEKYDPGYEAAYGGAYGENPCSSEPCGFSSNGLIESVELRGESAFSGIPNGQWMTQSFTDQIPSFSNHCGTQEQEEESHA
Sequence of Nuclear receptor coactivator 1 (Homo sapiens), Q15788-2 Y1169F (Q15788 other isoform, or with tags, fused parts or gaps Y1169F): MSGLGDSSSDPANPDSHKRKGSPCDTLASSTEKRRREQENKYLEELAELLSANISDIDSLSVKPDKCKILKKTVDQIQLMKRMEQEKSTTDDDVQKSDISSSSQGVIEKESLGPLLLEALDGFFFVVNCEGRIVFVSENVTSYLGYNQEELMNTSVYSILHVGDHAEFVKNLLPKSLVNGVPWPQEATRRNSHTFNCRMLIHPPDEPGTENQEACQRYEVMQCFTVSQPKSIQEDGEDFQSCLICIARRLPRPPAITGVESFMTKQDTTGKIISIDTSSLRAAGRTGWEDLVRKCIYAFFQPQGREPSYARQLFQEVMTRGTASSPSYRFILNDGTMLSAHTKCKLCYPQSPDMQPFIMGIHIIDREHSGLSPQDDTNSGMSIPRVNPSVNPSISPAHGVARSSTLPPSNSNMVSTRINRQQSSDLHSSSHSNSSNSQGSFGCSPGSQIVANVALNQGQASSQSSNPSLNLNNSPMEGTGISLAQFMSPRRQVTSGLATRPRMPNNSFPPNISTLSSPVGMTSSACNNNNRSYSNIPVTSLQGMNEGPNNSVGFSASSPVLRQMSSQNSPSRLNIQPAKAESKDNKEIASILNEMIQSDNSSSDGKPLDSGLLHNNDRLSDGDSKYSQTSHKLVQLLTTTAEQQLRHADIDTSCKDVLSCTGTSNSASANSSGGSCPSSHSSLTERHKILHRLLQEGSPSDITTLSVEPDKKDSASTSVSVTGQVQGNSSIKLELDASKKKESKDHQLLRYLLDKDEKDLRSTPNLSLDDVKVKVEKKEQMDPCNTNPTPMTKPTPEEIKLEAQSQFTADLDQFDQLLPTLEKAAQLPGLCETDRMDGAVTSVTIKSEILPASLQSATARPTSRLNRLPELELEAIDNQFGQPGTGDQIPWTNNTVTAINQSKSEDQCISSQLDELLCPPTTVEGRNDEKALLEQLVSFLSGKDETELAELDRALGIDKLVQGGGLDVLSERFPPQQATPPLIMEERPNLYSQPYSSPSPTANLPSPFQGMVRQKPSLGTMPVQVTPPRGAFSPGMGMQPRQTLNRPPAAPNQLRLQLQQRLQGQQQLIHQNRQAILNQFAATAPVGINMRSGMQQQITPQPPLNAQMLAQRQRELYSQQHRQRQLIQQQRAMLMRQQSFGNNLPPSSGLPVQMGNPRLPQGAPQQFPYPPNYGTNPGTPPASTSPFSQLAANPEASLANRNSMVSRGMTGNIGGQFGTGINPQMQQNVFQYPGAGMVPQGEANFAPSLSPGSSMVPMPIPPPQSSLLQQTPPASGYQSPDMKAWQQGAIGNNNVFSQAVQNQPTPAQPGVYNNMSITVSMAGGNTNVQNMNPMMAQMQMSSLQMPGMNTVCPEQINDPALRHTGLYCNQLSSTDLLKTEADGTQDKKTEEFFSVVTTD
Sequence of Nuclear receptor coactivator 1 (Homo sapiens), Q15788-2 Y991F (Q15788 other isoform, or with tags, fused parts or gaps Y991F): as the sequence (Q15788 other isoform, or with tags, fused parts or gaps Y1169F) above
Sequence of Nuclear receptor coactivator 1 (Homo sapiens), Q15788-2 Y991F;Y1169F (Q15788 other isoform, or with tags, fused parts or gaps Y991F;Y1169F): as the sequence (Q15788 other isoform, or with tags, fused parts or gaps Y1169F) above

Row | effect of a mutation on the interaction (tdg_human TDG [1]) | effect of a mutation on the interaction (tdg_human TDG [2]) | effect of a mutation on the interaction (tdg_mouse Tdg) | Substance
1 | disrupting interaction strength | – | – | Nuclear receptor coactivator 1 (Homo sapiens), Q15788-2 Y991F;Y1169F
2 | – | decreasing interaction strength | decreasing interaction strength | Nuclear receptor coactivator 1 (Homo sapiens), Q15788 Y1169F
3 | disrupting interaction strength | – | – | Nuclear receptor coactivator 1 (Homo sapiens), Q15788-2 Y1169F
4 | – | decreasing interaction strength | decreasing interaction strength | Nuclear receptor coactivator 1 (Homo sapiens), Q15788 Y991F;Y1169F
5 | decreasing interaction strength | – | – | Nuclear receptor coactivator 1 (Homo sapiens), Q15788-2 Y991F
6 | – | decreasing interaction strength | decreasing interaction strength | Nuclear receptor coactivator 1 (Homo sapiens), Q15788 Y991F
